Values quoted from earlier work, collected in patent US11672857B2, “Compositions and methods for a multi-adjuvant only approach to immunoprophylaxis for preventing infections” (University of Southern California, priority 2017, dated 2023).

System: T cell
Conditions: compared with non-glycosylated ovalbumin produced in E. coli

B1: Yeast-mannosylated ovalbumin: recombinant ovalbumin mannosylated by yeast during production (Lam et al.) (protein, UniProt P01012 2-386, looked up)
Ovalbumin: GSIGAASMEFCFDVFKELKVHHANENIFYCPIAIMSALAMVYLGAKDSTRTQINKVVRFDKLPGFGDSIEAQCGTSVNVHSSLRDILNQITKPNDVYSFSLASRLYAEERYPILPEYLQCVKELYRGGLEPINFQTAADQARELINSWVESQTNGIIRNVLQPSSVDSQTAMVLVNAIVFKGLWEKAFKDEDTQAMPFRVTEQESKPVQMMYQIGLFRVASMASEKMKILELPFASGTMSMLVLLPDEVSGLEQLESIINFEKLTEWTSSNVMEERKIKVYLPRMKMEEKYNLTSVLMAMGITDVFSSSANLSGISSAESLKISQAVHAAHAEINEAGREVVGSAEAGVDAASVSEEFRADHPFLFCIKHIATNAVLFFGRCVSP
modifications: yeast mannosylation
T cell proliferation: significantly greater T cell proliferation than did non-glycosylated ovalbumin produced in E. coli
